Test results: patent US20250034239A1 (LINNO PHARMACEUTICALS, published 2025)

Assays:
[1] = biological target: T1, human transferrin receptor 1 on HEK293F-hTfR1 cells (human, UniProt P02786 1-760); experiment: flow cytometry on HEK293F-hTfR1 cells with or without transferrin
T1 construct: whole, on cells
Method: (§1) HEK293F-hTfR1 cells were prepared by transfecting hTfR1-expressing plasmid, with a GFP tag, into HEK293F cells. Stable pool was used for this assay. Briefly, the engineered HEK293F cells expressing hTfR1 were cultured with OPM-293 CD05 medium at 37° C., with 8% CO₂ and saturated humidity in cell shaker. […] The cells were washed twice by centrifugation at 300 g for 5 min at 4° C., before rabbit anti-OVA antibodies and a secondary anti-rabbit IgG-AF647 (all prepared in blocking buffer). The cells were scanned with CytoFLEX (Beckman).

[2] = biological target: T2, human transferrin (Sigma T3309) (human, UniProt P02787 20-698); experiment: flow cytometry on HEK293F-hTfR1 cells with human transferrin, pH 6.0
T2 construct: mature; same polypeptide; also called native human transferrin; hTf
T2 sequence (P02787 20-698): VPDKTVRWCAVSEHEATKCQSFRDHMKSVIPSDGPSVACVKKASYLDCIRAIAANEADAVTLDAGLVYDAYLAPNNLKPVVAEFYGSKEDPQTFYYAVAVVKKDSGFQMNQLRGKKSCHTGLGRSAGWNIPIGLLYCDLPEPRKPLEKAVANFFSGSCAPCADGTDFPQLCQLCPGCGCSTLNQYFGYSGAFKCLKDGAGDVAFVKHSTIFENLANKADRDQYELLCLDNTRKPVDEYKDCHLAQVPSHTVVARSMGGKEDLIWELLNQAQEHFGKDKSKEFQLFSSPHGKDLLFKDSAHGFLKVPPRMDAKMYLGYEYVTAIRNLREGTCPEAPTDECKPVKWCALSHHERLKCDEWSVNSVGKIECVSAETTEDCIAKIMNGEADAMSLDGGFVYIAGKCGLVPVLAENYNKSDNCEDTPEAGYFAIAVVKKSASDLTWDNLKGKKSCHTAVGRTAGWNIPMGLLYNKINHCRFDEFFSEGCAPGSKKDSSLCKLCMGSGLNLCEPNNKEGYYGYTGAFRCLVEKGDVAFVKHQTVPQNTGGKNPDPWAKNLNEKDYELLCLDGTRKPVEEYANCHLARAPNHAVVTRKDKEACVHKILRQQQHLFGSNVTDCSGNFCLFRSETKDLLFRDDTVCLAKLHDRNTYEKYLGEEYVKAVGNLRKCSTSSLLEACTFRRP
Method: as §1

[3] = biological target: T2, human transferrin (Sigma T3309); experiment: flow cytometry on HEK293F-hTfR1 cells with human transferrin, pH 6.0; grade by % binding (10% > + ≥ 5%); non-specific binding column also +
Method: as §1

[4] = biological target: T2, human transferrin (Sigma T3309); experiment: flow cytometry on HEK293F-hTfR1 cells with human transferrin, pH 7.4
Method: as §1

[5] = biological target: T2, human transferrin (Sigma T3309); experiment: flow cytometry on HEK293F-hTfR1 cells with human transferrin, pH 7.4; grade by % binding (+++ ≥ 15%)
Method: as §1

human properdin = biological target: T3, human properdin (human, UniProt P27918 28-469, biotinylated); experiment: ELISA on biotinylated truncated variants of human properdin, VHH-Fc at 10 µg/ml
T3 construct: Recombinant, made in house; tag not described; In the hemolysis assays the target is the properdin of human serum; also called human properdin-biotin; biotin human Properdin
T3 sequence (P27918 28-469 limits assumed): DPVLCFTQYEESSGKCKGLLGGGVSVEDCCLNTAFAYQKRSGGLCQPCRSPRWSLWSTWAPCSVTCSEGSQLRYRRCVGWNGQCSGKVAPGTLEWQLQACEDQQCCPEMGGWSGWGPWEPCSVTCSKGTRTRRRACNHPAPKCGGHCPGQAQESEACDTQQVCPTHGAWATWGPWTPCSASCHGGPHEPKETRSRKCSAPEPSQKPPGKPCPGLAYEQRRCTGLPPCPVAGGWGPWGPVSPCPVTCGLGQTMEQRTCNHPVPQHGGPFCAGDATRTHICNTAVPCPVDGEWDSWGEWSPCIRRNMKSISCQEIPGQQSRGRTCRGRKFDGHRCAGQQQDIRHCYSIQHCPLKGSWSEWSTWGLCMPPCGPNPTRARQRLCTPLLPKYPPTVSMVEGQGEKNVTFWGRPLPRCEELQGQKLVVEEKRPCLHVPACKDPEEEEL
Method: 96-well immunoplates were coated with 100 μl/well 1 μg/ml streptavidin and incubate at 4° C. overnight. Wells were washed with PBST for 3 times and blocked with 200 μl of 1% BSA/PBS at RT for 1 h. […] Plates were washed with PBST for 3 times, 100 μl/well 10 μg/ml VHH-Fcs were added and incubate at RT for 1 h. Plates were washed with PBST for 3 times and add 100 μl goat anti-human Fc-HRP (Sigma, A0170) diluted 1/5000 in 1% BSA/PBST to each well and incubate at RT for 1 h. Plates were then washed as before and add 100 μl TMB substrate and incubate at RT for 15 min. 100 μl per well stop solution was added to stop the reaction, and the plates were read with microplate reader at 450 nm.

[6] = biological target: T2, human transferrin (Sigma T3309); experiment: flow cytometry on HEK293F-hTfR1 cells with human transferrin, pH 7.4; grade by % binding (10% > + ≥ 5%)
Method: as §1

T1 sequence (P02786 whole entry): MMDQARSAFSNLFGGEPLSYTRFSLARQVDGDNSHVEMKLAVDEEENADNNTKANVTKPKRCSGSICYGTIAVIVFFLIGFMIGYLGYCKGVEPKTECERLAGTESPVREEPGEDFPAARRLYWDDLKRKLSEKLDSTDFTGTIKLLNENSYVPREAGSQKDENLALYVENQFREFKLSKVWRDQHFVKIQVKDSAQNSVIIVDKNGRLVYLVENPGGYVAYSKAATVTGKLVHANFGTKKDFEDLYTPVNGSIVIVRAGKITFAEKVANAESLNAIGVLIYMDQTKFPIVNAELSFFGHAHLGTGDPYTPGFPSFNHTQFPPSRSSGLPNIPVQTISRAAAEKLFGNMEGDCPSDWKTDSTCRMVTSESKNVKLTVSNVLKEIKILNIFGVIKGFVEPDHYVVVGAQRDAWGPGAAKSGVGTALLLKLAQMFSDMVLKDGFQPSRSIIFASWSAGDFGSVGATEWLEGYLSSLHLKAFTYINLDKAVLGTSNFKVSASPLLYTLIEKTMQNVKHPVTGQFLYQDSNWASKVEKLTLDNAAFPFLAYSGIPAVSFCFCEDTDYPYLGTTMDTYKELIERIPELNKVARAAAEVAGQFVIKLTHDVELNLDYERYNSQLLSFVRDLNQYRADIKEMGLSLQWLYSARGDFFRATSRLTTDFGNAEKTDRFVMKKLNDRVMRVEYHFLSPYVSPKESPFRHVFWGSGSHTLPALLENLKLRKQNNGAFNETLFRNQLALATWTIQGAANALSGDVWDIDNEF

B1: SLN0043 VHH-OVA-His (VHH)
chain: DVQLVESGGGSVQAGGSLRLSCAASGVTWSRDWMAWFRQAPGKEREGVAAFVPSIGSTFYVDSVKGRFTISQDNAKNTLFLQMNSLKPEDTAMYYCATDPLWGRKYGGSWSDPSEYNYWGQGTQVTVSSGSIGAASMEFCFDVFKELKVHHANENIFYCPIAIMSALAMVYLGAKDSTRTQINKVVRFDKLPGFGDSIEAQCGTSVNVHSSLRDILNQITKPNDVYSFSLASRLYAEERYPILPEYLQCVKELYRGGLEPINFQTAADQARELINSWVESQTNGIIRNVLQPSSVDSQTAMVLVNAIVFKGLWEKAFKDEDTQAMPFRVTEQESKPVQMMYQIGLFRVASMASEKMKILELPFASGTMSMLVLLPDEVSGLEQLESIINFEKLTEWTSSNVMEERKIKVYLPRMKMEEKYNLTSVLMAMGITDVFSSSANLSGISSAESLKISQAVHAAHAEINEAGREVVGSAEAGVDAASVSEEFRADHPFLFCIKHIATNAVLFFGRCVSP
notes: Tested as recombinant VHH-OVA-His; not shown: His tag
- binding result [1]: no binding (tested: 10 µg/mL)
- percent binding (flow cytometry, VHH/Tf on hTfR1-overexpressing cells, pH 6.0) [2]: < 5%

B2: SLN0059 VHH-OVA-His (VHH)
chain: HVQLVESGGGSVQSGGSLRLSCAASGITISNYYMTWFRQAPGKEREGVAGLTRADVTLYADSVKGRFTISRDNAKNTLYLQMNSLKPEDTAMYYCAAADRFRVGLREADFSAWGQGTQVTVSSGSIGAASMEFCFDVFKELKVHHANENIFYCPIAIMSALAMVYLGAKDSTRTQINKVVRFDKLPGFGDSIEAQCGTSVNVHSSLRDILNQITKPNDVYSFSLASRLYAEERYPILPEYLQCVKELYRGGLEPINFQTAADQARELINSWVESQTNGIIRNVLQPSSVDSQTAMVLVNAIVFKGLWEKAFKDEDTQAMPFRVTEQESKPVQMMYQIGLFRVASMASEKMKILELPFASGTMSMLVLLPDEVSGLEQLESIINFEKLTEWTSSNVMEERKIKVYLPRMKMEEKYNLTSVLMAMGITDVFSSSANLSGISSAESLKISQAVHAAHAEINEAGREVVGSAEAGVDAASVSEEFRADHPFLFCIKHIATNAVLFFGRCVSP
notes: as for B1
- percent binding (flow cytometry, VHH/Tf on hTfR1-overexpressing cells, pH 6.0) [3]: 5 to 10%
- percent binding (flow cytometry, VHH/Tf on hTfR1-overexpressing cells, pH 7.4) [4]: < 5%

B3: SLN0042 VHH-OVA-His (VHH)
chain: DVQLVESGGGSVQAGGSLRLSCAASGYTRSFTCMGWFRQAPGKEREGVATINPGTGSTYYADSVKGRFSISQDNAKNTVYLQMNTLKPEDTAMYYCAATQLFGCGSLAKSLFGYWGQGTLVTVSSGSIGAASMEFCFDVFKELKVHHANENIFYCPIAIMSALAMVYLGAKDSTRTQINKVVRFDKLPGFGDSIEAQCGTSVNVHSSLRDILNQITKPNDVYSFSLASRLYAEERYPILPEYLQCVKELYRGGLEPINFQTAADQARELINSWVESQTNGIIRNVLQPSSVDSQTAMVLVNAIVFKGLWEKAFKDEDTQAMPFRVTEQESKPVQMMYQIGLFRVASMASEKMKILELPFASGTMSMLVLLPDEVSGLEQLESIINFEKLTEWTSSNVMEERKIKVYLPRMKMEEKYNLTSVLMAMGITDVFSSSANLSGISSAESLKISQAVHAAHAEINEAGREVVGSAEAGVDAASVSEEFRADHPFLFCIKHIATNAVLFFGRCVSP
notes: as for B1
- binding result [1]: no binding (tested: 10 µg/mL)
- percent binding (flow cytometry, VHH/Tf on hTfR1-overexpressing cells, pH 6.0) [2]: < 5%
- percent binding (flow cytometry, VHH/Tf on hTfR1-overexpressing cells, pH 7.4) [5]: ≥ 15%

B4: SLN12075 VHH-Fc (Fc fusion)
VHH: EVQLVESGGGLVQPGGSLRLSCAASAYIYSSYCMGWFRQAPGKGLERVSVINSDGRTSYADSVKGRFTISRDNSKNTLYLQMNSLRAEDTAVYYCAAVILPPTDGMEYSCNYPAAEYNYWGQGTLVTVSS
notes: not shown: its position and linker are not fixed for the humanized single VHH
- binding result (human properdin): binds

B5: SLN0066 VHH-OVA-His (negative control VHH) (VHH)
chain: HVQLVESGGGSVQAGGSLRLSCVASGIGHGFNNNCMGWFRQAPGKEREGVAAVYTGGGTPYYADSVKGRFTLSQDNAKNTLYLQMNGLDPEDTAMYYCVADIWRTYRCGAGDTTVFDYRGQGTLVTVSSGSIGAASMEFCFDVFKELKVHHANENIFYCPIAIMSALAMVYLGAKDSTRTQINKVVRFDKLPGFGDSIEAQCGTSVNVHSSLRDILNQITKPNDVYSFSLASRLYAEERYPILPEYLQCVKELYRGGLEPINFQTAADQARELINSWVESQTNGIIRNVLQPSSVDSQTAMVLVNAIVFKGLWEKAFKDEDTQAMPFRVTEQESKPVQMMYQIGLFRVASMASEKMKILELPFASGTMSMLVLLPDEVSGLEQLESIINFEKLTEWTSSNVMEERKIKVYLPRMKMEEKYNLTSVLMAMGITDVFSSSANLSGISSAESLKISQAVHAAHAEINEAGREVVGSAEAGVDAASVSEEFRADHPFLFCIKHIATNAVLFFGRCVSP
notes: not shown: His tag
- percent binding (flow cytometry, VHH/Tf on hTfR1-overexpressing cells, pH 6.0) [2]: < 5%
- percent binding (flow cytometry, VHH/Tf on hTfR1-overexpressing cells, pH 7.4) [4]: < 5%

B6: SLN12083 VHH-Fc (Fc fusion)
VHH: EVQLVESGGGLVQPGGSLRLSCAASEYTSSSYCMAWIRQAPGKGLEGVAAIDTDGSTSYTDSVKGRFTISRDNSKNTLYLQMNSLRAEDTAVYYCAAAPWLLAYGDYCVTRPDFGEWGQGTLVTVSS
notes: as for B4
- binding result (human properdin): binds

B7: SLN12068 VHH-Fc (Fc fusion)
VHH: EVQLVESGGGLVQPGGSLRLSCAAFEYYYCMGWFRQAPGKGLEGVASFDTSDGSKYYADSVKGRFTISKDNSKNTLYLQMNSLRAEDTAVYYCAARPFYVGGTCLPRLTDFSIWGQGTLVTVSS
notes: as for B4
- binding result (human properdin): binds

B8: SLN0057 VHH-OVA-His (VHH)
chain: HVQLVESGGGSVQAGGSLRLSCAASGHTYSIYYMAWFRQAPGKEREGVAVIYRGGSTTYADSAKGRFTVSQDNGKNTVYLQMNSLKAEDTAMYYCAAAHVLHVSSLLPGGYPYWGQGTLVTVSSGSIGAASMEFCFDVFKELKVHHANENIFYCPIAIMSALAMVYLGAKDSTRTQINKVVRFDKLPGFGDSIEAQCGTSVNVHSSLRDILNQITKPNDVYSFSLASRLYAEERYPILPEYLQCVKELYRGGLEPINFQTAADQARELINSWVESQTNGIIRNVLQPSSVDSQTAMVLVNAIVFKGLWEKAFKDEDTQAMPFRVTEQESKPVQMMYQIGLFRVASMASEKMKILELPFASGTMSMLVLLPDEVSGLEQLESIINFEKLTEWTSSNVMEERKIKVYLPRMKMEEKYNLTSVLMAMGITDVFSSSANLSGISSAESLKISQAVHAAHAEINEAGREVVGSAEAGVDAASVSEEFRADHPFLFCIKHIATNAVLFFGRCVSP
notes: as for B1
- percent binding (flow cytometry, VHH/Tf on hTfR1-overexpressing cells, pH 6.0) [3]: 5 to 10%
- percent binding (flow cytometry, VHH/Tf on hTfR1-overexpressing cells, pH 7.4) [4]: < 5%

B9: SLN0062 VHH-OVA-His (VHH)
chain: QVQLVESGGGSVQSGGSLRLSCAASGYTFSRNCMGWFRQTPGKERERVATVYPGGGSTYYADSVKGRFTFSQDNAKNAIYLQMNTLKPEDTGMYYCAASRRIWSCGSGAGSYDYWGQGTQVTVSSGSIGAASMEFCFDVFKELKVHHANENIFYCPIAIMSALAMVYLGAKDSTRTQINKVVRFDKLPGFGDSIEAQCGTSVNVHSSLRDILNQITKPNDVYSFSLASRLYAEERYPILPEYLQCVKELYRGGLEPINFQTAADQARELINSWVESQTNGIIRNVLQPSSVDSQTAMVLVNAIVFKGLWEKAFKDEDTQAMPFRVTEQESKPVQMMYQIGLFRVASMASEKMKILELPFASGTMSMLVLLPDEVSGLEQLESIINFEKLTEWTSSNVMEERKIKVYLPRMKMEEKYNLTSVLMAMGITDVFSSSANLSGISSAESLKISQAVHAAHAEINEAGREVVGSAEAGVDAASVSEEFRADHPFLFCIKHIATNAVLFFGRCVSP
notes: as for B1
- percent binding (flow cytometry, VHH/Tf on hTfR1-overexpressing cells, pH 7.4) [6]: 5 to 10%
- percent binding (flow cytometry, VHH/Tf on hTfR1-overexpressing cells, pH 6.0) [3]: 5 to 10%

B10: SLN0064 VHH-OVA-His (VHH)
chain: HVQLVESGGGSVQAGGSLRLSCAASGYSVSWFCMGWFRQAPGLEREGVAVIDVDSIARYGDSVKGRFTISQGNSKDTVYLQMNGLKPEDTAMYYCAAKTERQCRWNWMDWRTYDYPHWGQGTQVTVSSGSIGAASMEFCFDVFKELKVHHANENIFYCPIAIMSALAMVYLGAKDSTRTQINKVVRFDKLPGFGDSIEAQCGTSVNVHSSLRDILNQITKPNDVYSFSLASRLYAEERYPILPEYLQCVKELYRGGLEPINFQTAADQARELINSWVESQTNGIIRNVLQPSSVDSQTAMVLVNAIVFKGLWEKAFKDEDTQAMPFRVTEQESKPVQMMYQIGLFRVASMASEKMKILELPFASGTMSMLVLLPDEVSGLEQLESIINFEKLTEWTSSNVMEERKIKVYLPRMKMEEKYNLTSVLMAMGITDVFSSSANLSGISSAESLKISQAVHAAHAEINEAGREVVGSAEAGVDAASVSEEFRADHPFLFCIKHIATNAVLFFGRCVSP
notes: as for B1
- percent binding (flow cytometry, VHH/Tf on hTfR1-overexpressing cells, pH 7.4) [6]: 5 to 10%
- percent binding (flow cytometry, VHH/Tf on hTfR1-overexpressing cells, pH 6.0) [3]: 5 to 10%
